Source: publication PMC3094209

Tests used:
[1] = target: human angiotensin receptor type 2 expressed in P. pastoris (human) (UniProt P50052); assay: radioligand binding; membranes from small-scale cultures; radioactive-labelled specific ligand; specific binding in pmol/mg-membrane, mean ± S.D., n = 3
[2] = target: human angiotensin receptor type 2 expressed in Sf9 insect cells (human) (UniProt P50052); assay: as above

specific binding activity (pmol/mg-membrane) [1]: 3.69
specific binding activity (pmol/mg-membrane) [2]: 1.66
Substance: Angiotensin (printed as "Angiotenin"), radioactive-labelled agonist (peptide)
